# The supplement of paper PMC11316812
# ± gives the standard deviation of the averaged measurements.
# Key:
# hTERT-HMEC = test: percentage of EdU-negative (G0-arrested) nuclei per well, 72 h; higher = more G0 arrest; conditions: reference: sequence is the full UniProt precursor, the tested protein was the secreted form or ectodomain
# MCF7 = test: as above; conditions: reference: sequence is the full UniProt precursor, the tested protein was the secreted form or ectodomain
# [1] = protein concentration 0.01325 µM
# [2] = protein concentration 0.1325 µM
# [3] = protein concentration 0.0122857 µM
# [4] = protein concentration 0.122857 µM
# [5] = protein concentration 0.03125 µM
# [6] = protein concentration 0.3125 µM
# [7] = protein concentration 0.01422 µM
# [8] = protein concentration 0.1422 µM
# [9] = protein concentration 0.0225 µM
# [10] = protein concentration 0.0075 µM
# [11] = protein concentration 0.02102 µM
# [12] = protein concentration 0.2102 µM
# 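Note: secreted proteins added to cultured cells, EdU pulse at the end, nuclei found by Hoechst imaging, EdU status from nuclear versus surrounding ring intensity ratio, PBS as neutral control.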
sequence,measurement,setting,value
MTTWSLRRRPARTLGLLLLVVLGFLVLRRLDWSTLVPLRLRHRQLGLQAKGWNFMLEDSTFWIFGGSIHYFRVPREYWRDRLLKMKACGLNTLTTYVPWNLHEPERGKFDFSGNLDLEAFVLMAAEIGLWVILRPGPYICSEMDLGGLPSWLLQDPGMRLRTTYKGFTEAVDLYFDHLMSRVVPLQYKRGGPIIAVQVENEYGSYNKDPAYMPYVKKALEDRGIVELLLTSDNKDGLSKGIVQGVLATINLQSTHELQLLTTFLFNVQGTQPKMVMEYWTGWFDSWGGPHNILDSSEVLKTVSAIVDAGSSINLYMFHGGTNFGFMNGAMHFHDYKSDVTSYDYDAVLTEAGDYTAKYMKLRDFFGSISGIPLPPPPDLLPKMPYEPLTPVLYLSLWDALKYLGEPIKSEKPINMENLPVNGGNGQSFGYILYETSITSSGILSGHVHDRGQVFVNTVSIGFLDYKTTKIAVPLIQGYTVLRILVENRGRVNYGENIDDQRKGLIGNLYLNDSPLKNFRIYSLDMKKSFFQRFGLDKWSSLPETPTLPAFFLGSLSISSTPCDTFLKLEGWEKGVVFINGQNLGRYWNIGPQKTLYLPGPWLSSGINQVIVFEETMAGPALQFTETPHLGRNQYIK [Q8IW92],percentage of EdU-negative,hTERT-HMEC; [1],4.88 ± 0.97%
same,percentage of EdU-negative,hTERT-HMEC; [2],9.63 ± 0.41%
same,percentage of EdU-negative,MCF7; [1],23.6 ± 0.28%
same,percentage of EdU-negative,MCF7; [2],27.7 ± 0.33%
MKILILGIFLFLCSTPAWAKEKHYYIGIIETTWDYASDHGEKKLISVDTEHSNIYLQNGPDRIGRLYKKALYLQYTDETFRTTIEKPVWLGFLGPIIKAETGDKVYVHLKNLASRPYTFHSHGITYYKEHEGAIYPDNTTDFQRADDKVYPGEQYTYMLLATEEQSPGEGDGNCVTRIYHSHIDAPKDIASGLIGPLIICKKDSLDKEKEKHIDREFVVMFSVVDENFSWYLEDNIKTYCSEPEKVDKDNEDFQESNRMYSVNGYTFGSLPGLSMCAEDRVKWYLFGMGNEVDVHAAFFHGQALTNKNYRIDTINLFPATLFDAYMVAQNPGEWMLSCQNLNHLKAGLQAFFQVQECNKSSSKDNIRGKHVRHYYIAAEEIIWNYAPSGIDIFTKENLTAPGSDSAVFFEQGTTRIGGSYKKLVYREYTDASFTNRKERGPEEEHLGILGPVIWAEVGDTIRVTFHNKGAYPLSIEPIGVRFNKNNEGTYYSPNYNPQSRSVPPSASHVAPTETFTYEWTVPKEVGPTNADPVCLAKMYYSAVEPTKDIFTGLIGPMKICKKGSLHANGRQKDVDKEFYLFPTVFDENESLLLEDNIRMFTTAPDQVDKEDEDFQESNKMHSMNGFMYGNQPGLTMCKGDSVVWYLFSAGNEADVHGIYFSGNTYLWRGERRDTANLFPQTSLTLHMWPDTEGTFNVECLTTDHYTGGMKQKYTVNQCRRQSEDSTFYLGERTYYIAAVEVEWDYSPQREWEKELHHLQEQNVSNAFLDKGEFYIGSKYKKVVYRQYTDSTFRVPVERKAEEEHLGILGPQLHADVGDKVKIIFKNMATRPYSIHAHGVQTESSTVTPTLPGETLTYVWKIPERSGAGTEDSACIPWAYYSTVDQVKDLYSGLIGPLIVCRRPYLKVFNPRRKLEFALLFLVFDENESWYLDDNIKTYSDHPEKVNKDDEEFIESNKMHAINGRMFGNLQGLTMHVGDEVNWYLMGMGNEIDLHTVHFHGHSFQYKHRGVYSSDVFDIFPGTYQTLEMFPRTPGIWLLHCHVTDHIHAGMETTYTVLQNEDTKSG,percentage of EdU-negative,hTERT-HMEC; [3],5.56 ± 0.7%
same,percentage of EdU-negative,hTERT-HMEC; [4],7.89 ± 0.25%
same,percentage of EdU-negative,MCF7; [3],22.7 ± 3%
same,percentage of EdU-negative,MCF7; [4],29.9 ± 0.94%
MRIWWLLLAIEICTGNINSQDTCRQGHPGIPGNPGHNGLPGRDGRDGAKGDKGDAGEPGRPGSPGKDGTSGEKGERGADGKVEAKGIKGDQGSRGSPGKHGPKGLAGPMGEKGLRGETGPQGQKGNKGDVGPTGPEGPRGNIGPLGPTGLPGPMGPIGKPGPKGEAGPTGPQGEPGVRGIRGWKGDRGEKGKIGETLVLPKSAFTVGLTVLSKFPSSDMPIKFDKILYNEFNHYDTAAGKFTCHIAGVYYFTYHITVFSRNVQVSLVKNGVKILHTKDAYMSSEDQASGGIVLQLKLGDEVWLQVTGGERFNGLFADEDDDTTFTGFLLFSSP [P0C862],percentage of EdU-negative,hTERT-HMEC; [5],5.3 ± 0.76%
same,percentage of EdU-negative,hTERT-HMEC; [6],7.183 ± 0.018%
same,percentage of EdU-negative,MCF7; [5],28.2 ± 0.72%
same,percentage of EdU-negative,MCF7; [6],30.09 ± 0.089%
MGAPACALALCVAVAIVAGASSESLGTEQRVVGRAAEVPGPEPGQQEQLVFGSGDAVELSCPPPGGGPMGPTVWVKDGTGLVPSERVLVGPQRLQVLNASHEDSGAYSCRQRLTQRVLCHFSVRVTDAPSSGDDEDGEDEAEDTGVDTGAPYWTRPERMDKKLLAVPAANTVRFRCPAAGNPTPSISWLKNGREFRGEHRIGGIKLRHQQWSLVMESVVPSDRGNYTCVVENKFGSIRQTYTLDVLERSPHRPILQAGLPANQTAVLGSDVEFHCKVYSDAQPHIQWLKHVEVNGSKVGPDGTPYVTVLKTAGANTTDKELEVLSLHNVTFEDAGEYTCLAGNSIGFSHHSAWLVVLPAEEELVEADEAGSVYAGILSYGVGFFLFILVVAAVTLCRLRSPPKKGLGSPTVHKISRFPLKRQVSLESNASMSSNTPLVRIARLSSGEGPTLANVSELELPADPKWELSRARLTLGKPLGEGCFGQVVMAEAIGIDKDRAAKPVTVAVKMLKDDATDKDLSDLVSEMEMMKMIGKHKNIINLLGACTQGGPLYVLVEYAAKGNLREFLRARRPPGLDYSFDTCKPPEEQLTFKDLVSCAYQVARGMEYLASQKCIHRDLAARNVLVTEDNVMKIADFGLARDVHNLDYYKKTTNGRLPVKWMAPEALFDRVYTHQSDVWSFGVLLWEIFTLGGSPYPGIPVEELFKLLKEGHRMDKPANCTHDLYMIMRECWHAAPSQRPTFKQLVEDLDRVLTVTSTDEYLDLSAPFEQYSPGGQDTPSSSSSGDDSVFAHDLLPPAPPSSGGSRT,percentage of EdU-negative,hTERT-HMEC; [7],5.58 ± 0.063%
same,percentage of EdU-negative,hTERT-HMEC; [8],5.64 ± 0.3%
same,percentage of EdU-negative,MCF7; [7],27.1 ± 3.1%
same,percentage of EdU-negative,MCF7; [8],25.5 ± 3.1%
MPRCRWLSLILLTIPLALVARKDPKKNETGVLRKLKPVNASNANVKQCLWFAMQEYNKESEDKYVFLVVKTLQAQLQVTNLLEYLIDVEIARSDCRKPLSTNEICAIQENSKLKRKLSCSFLVGALPWNGEFTVMEKKCEDA,percentage of EdU-negative,hTERT-HMEC; [9],5.21 ± 1.2%
same,percentage of EdU-negative,hTERT-HMEC; protein concentration 0.225 µM,4.56 ± 0.34%
same,percentage of EdU-negative,MCF7; [9],27.2 ± 1.2%
same,percentage of EdU-negative,MCF7; protein concentration 0.225 µM,25.6 ± 1.6%
MDPKLGRMAASLLAVLLLLLERGMFSSPSPPPALLEKVFQYIDLHQDEFVQTLKEWVAIESDSVQPVPRFRQELFRMMAVAADTLQRLGARVASVDMGPQQLPDGQSLPIPPVILAELGSDPTKGTVCFYGHLDVQPADRGDGWLTDPYVLTEVDGKLYGRGATDNKGPVLAWINAVSAFRALEQDLPVNIKFIIEGMEEAGSVALEELVEKEKDRFFSGVDYIVISDNLWISQRKPAITYGTRGNSYFMVEVKCRDQDFHSGTFGGILHEPMADLVALLGSLVDSSGHILVPGIYDEVVPLTEEEINTYKAIHLDLEEYRNSSRVEKFLFDTKEEILMHLWRYPSLSIHGIEGAFDEPGTKTVIPGRVIGKFSIRLVPHMNVSAVEKQVTRHLEDVFSKRNSSNKMVVSMTLGLHPWIANIDDTQYLAAKRAIRTVFGTEPDMIRDGSTIPIAKMFQEIVHKSVVLIPLGAVDDGEHSQNEKINRWNYIEGTKLFAAFFLEMAQLH [Q96KN2],percentage of EdU-negative,hTERT-HMEC; [5],5.23 ± 0.23%
same,percentage of EdU-negative,hTERT-HMEC; [6],5.9 ± 0.65%
same,percentage of EdU-negative,MCF7; [5],24.9 ± 0.15%
same,percentage of EdU-negative,MCF7; [6],23 ± 2.2%
MACWWPLLLELWTVMPTWAGDELLNICMNAKHHKRVPSPEDKLYEECIPWKDNACCTLTTSWEAHLDVSPLYNFSLFHCGLLMPGCRKHFIQAICFYECSPNLGPWIQPVGSLGWEVAPSGQGERVVNVPLCQEDCEEWWEDCRMSYTCKSNWRGGWDWSQGKNRCPKGAQCLPFSHYFPTPADLCEKTWSNSFKASPERRNSGRCLQKWFEPAQGNPNVAVARLFASSAPSWELSYTIMVCSLFLPFLS [A6ND01],percentage of EdU-negative,hTERT-HMEC; [10],5.08 ± 0.06%
same,percentage of EdU-negative,hTERT-HMEC; protein concentration 0.075 µM,7.68 ± 0.15%
same,percentage of EdU-negative,MCF7; [10],24.06 ± 0.21%
same,percentage of EdU-negative,MCF7; protein concentration 0.075 µM,25.05 ± 0.12%
MKALLALPLLLLLSTPPCAPQVSGIRGDALERFCLQQPLDCDDIYAQGYQSDGVYLIYPSGPSVPVPVFCDMTTEGGKWTVFQKRFNGSVSFFRGWNDYKLGFGRADGEYWLGLQNMHLLTLKQKYELRVDLEDFENNTAYAKYADFSISPNAVSAEEDGYTLFVAGFEDGGAGDSLSYHSGQKFSTFDRDQDLFVQNCAALSSGAFWFRSCHFANLNGFYLGGSHLSYANGINWAQWKGFYYSLKRTEMKIRRA,percentage of EdU-negative,hTERT-HMEC; [5],4.11 ± 0.33%
same,percentage of EdU-negative,hTERT-HMEC; [6],4.91 ± 0.91%
same,percentage of EdU-negative,MCF7; [5],22.9 ± 0.61%
same,percentage of EdU-negative,MCF7; [6],26.2 ± 3.4%
MARPGQRWLGKWLVAMVVWALCRLATPLAKNLEPVSWSSLNPKFLSGKGLVIYPKIGDKLDIICPRAEAGRPYEYYKLYLVRPEQAAACSTVLDPNVLVTCNRPEQEIRFTIKFQEFSPNYMGLEFKKHHDYYITSTSNGSLEGLENREGGVCRTRTMKIIMKVGQDPNAVTPEQLTTSRPSKEADNTVKMATQAPGSRGSLGDSDGKHETVNQEEKSGPGASGGSSGDPDGFFNSKVALFAAVGAGCVIFLLIIIFLTVLLLKLRKRHRKHTQQRAAALSLSTLASPKGGSGTAGTEPSDIIIPLRTTENNYCPHYEKVSGDYGHPVYIVQEMPPQSPANIYYKV,percentage of EdU-negative,hTERT-HMEC; [11],5.93 ± 0.36%
same,percentage of EdU-negative,hTERT-HMEC; [12],5.52 ± 0.52%
same,percentage of EdU-negative,MCF7; [11],26.6 ± 1.7%
same,percentage of EdU-negative,MCF7; [12],27.1 ± 2.8%
